# Assays:
# [1] = Hydrophilicity of bispecific antibodies (HIC, TSKgel Butyl-NPR); format: physicochemical; details: for Hydrophobicity value: (RT sample − RT hydrophilic control)/(RT hydrophobic control − RT hydrophilic control), Tagitanlimab = 0, Sacituzumab = 1; for Retention time: HIC, TSKgel Butyl-NPR column, 30°C, smaller = more hydrophilic
# Experimental: Column temperature: 30° C., detection wavelength: 280 nm, flow rate: 0.5 ml/min, mobile phase A: 1.5 mol/L (NH4)2SO4, mobile phase B: 25 mmol/L Na2HPO4, pH=7.0, 25% IPA. A suitable amount of the test sample was diluted with diluent (0.75 mol/L (NH4)2SO4) to make a solution of 1.0 mg/ml as the test sample solution. The control antibodies were Tagitanlimab as a hydrophilic control (disclosed in WO2017148424) and Sacituzumab as a hydrophobic control (disclosed in WO2019114666). (Both antibodies are produced by Kelun-Biotech.) Each of the control antibodies were diluted with the diluent to make a solution of 1.0 mg/ml as the system suitability solution. About […] of sample was injected and analyzed in gradient elution: 0-3 min, maintaining mobile phase A of 95% and mobile phase B of 5%; 3-40 min, mobile phase B from 5% to 100%; 40-45 min, maintaining mobile phase A of 95% and mobile phase B of 5%. The hydrophobicity value of the test sample was calculated according to the control sample with the formula: (retention time of the test sample−retention time of the hydrophilic control)/(retention time of the hydrophobic control−retention time of the hydrophilic control), and the smaller the retention time and hydrophobicity value, the better the hydrophilicity of the antibody.
# [2] = Hydrophilicity of ADCs (HIC, TSKgel Butyl-NPR); format: physicochemical; details: for Hydrophobicity value: (RT sample − RT hydrophilic control)/(RT hydrophobic control − RT hydrophilic control), Tagitanlimab = 0, Sacituzumab = 1; for Retention time: HIC, TSKgel Butyl-NPR column, 30°C, smaller = more hydrophilic
# Experimental: The column temperature was 30° C., the detection wavelength was 280 nm, and the flow rate was: 0.5 mL/min, mobile phase A: 1.5 mol/L (NH4)2SO4; mobile phase B: 25 mmol/L Na2HPO4, pH=7.0, 25% isopropanol alcohol (IPA). For analysis, a test sample of ADC was diluted to 1 mg/mL solution using the diluent 0.75 mol/L (NH4)2SO4 to provide a test solution. The hydrophilic control antibody was Tagitanlimab and the hydrophobic control antibody was Sacituzumab. Control antibodies were produced by Sichuan Kelun-Biotech Biopharmaceutical Co., Ltd. using the diluent to make a 1 mg/mL test solution as the system suitability solution. […] After testing, the hydrophobicity value of the test sample was calculated based on the control sample. The calculation formula was: (Retention time of test sample−Retention time of hydrophilic control)/(Retention time of hydrophobic control−Retention time of hydrophilic control).
Substance,Hydrophobicity value [1],Retention time [1],Hydrophobicity value [2],Retention time [2]
Sacituzumab,1.00,19.001 min,1.00,19.00 min
Tagitanlimab,0.00,11.009 min,0.00,11.01 min
